Assay results as given in patent US20190330320A1.

Molecular target: hyperphosphorylated human tau P301L (4R0N) from rTg4510 mouse brain (64 and 70 kDa species) (human) (UniProt P10636)
Assay: binding to P301L human mutant tau isolated from 10 month old Tg4510 mice

Sequence of hyperphosphorylated human tau P301L (4R0N) from rTg4510 mouse brain (64 and 70 kDa species) (human) (P10636 other isoform, or with tags, fused parts or gaps P301L P301L): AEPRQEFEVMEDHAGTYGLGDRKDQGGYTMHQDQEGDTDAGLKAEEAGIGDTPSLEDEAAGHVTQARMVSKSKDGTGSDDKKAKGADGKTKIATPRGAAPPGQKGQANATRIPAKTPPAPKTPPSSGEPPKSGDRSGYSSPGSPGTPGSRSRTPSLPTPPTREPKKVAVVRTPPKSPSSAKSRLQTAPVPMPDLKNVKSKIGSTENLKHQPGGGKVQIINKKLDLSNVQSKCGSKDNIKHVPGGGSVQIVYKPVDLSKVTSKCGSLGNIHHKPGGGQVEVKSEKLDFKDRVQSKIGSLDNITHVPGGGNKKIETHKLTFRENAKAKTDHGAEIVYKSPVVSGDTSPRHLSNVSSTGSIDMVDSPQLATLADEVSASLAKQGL

B1: 4E4 (antibody, from another filing, V domains shown)
VH: EVQLVESGGGLVQPGGSLKLSCAASGFNFNISAIHWVRQASGKGLEWVGRIRSKSHNYATLYAASLKGRFTLSRDDSRNTAYLQMSSLQTEDMAVYYCTVLSANYDTFDYWGQGTLVTVSS
VL: SYELTQPPSVSVSPGQTARISCFGDTLPKQYTYWYQQKPGQAPVLVIYKDTERPSGIPERFSGSSSGTTVTLTISGVQAEDEADYYCLSADNSATWVFGGGTKVTVL
Question: Which TG/wt (binding to P301L tau from Tg4510 mice over wild type) does the source give for B1 here?
Answer: 1
